Our source for the Km values is patent US5939560A, “Inhibitors of DP-mediated processes, compositions and therapeutic methods thereof” (Ferring B.V., priority 1993, dated 1999).

Substrate in the data set: C[C@H](N)C(=O)N1CCC[C@H]1C(=O)Nc1ccc2c(C(F)(F)F)cc(=O)oc2c1
As to the kind of experiment: purified protein, by the assay type. Conditions: other: substrate of DP-IV assay.

Method: All compounds were tested in vitro against pure human DP-IV (purchased from M & E, Copenhagen, Denmark). […] Ki values were determined using Dixon plots.

B1: pure human DP-IV (Homo sapiens) (protein)
chain: MKTPWKVLLGLLGAAALVTIITVPVVLLNKGTDDATADSRKTYTLTDYLKNTYRLKLYSLRWISDHEYLYKQENNILVFNAEYGNSSVFLENSTFDEFGHSINDYSISPDGQFILLEYNYVKQWRHSYTASYDIYDLNKRQLITEERIPNNTQWVTWSPVGHKLAYVWNNDIYVKIEPNLPSYRITWTGKEDIIYNGITDWVYEEEVFSAYSALWWSPNGTFLAYAQFNDTEVPLIEYSFYSDESLQYPKTVRVPYPKAGAVNPTVKFFVVNTDSLSSVTNATSIQITAPASMLIGDHYLCDVTWATQERISLQWLRRIQNYSVMDICDYDESSGRWNCLVARQHIEMSTTGWVGRFRPSEPHFTLDGNSFYKIISNEEGYRHICYFQIDKKDCTFITKGTWEVIGIEALTSDYLYYISNEYKGMPGGRNLYKIQLSDYTKVTCLSCELNPERCQYYSVSFSKEAKYYQLRCSGPGLPLYTLHSSVNDKGLRVLEDNSALDKMLQNVQMPSKKLDFIILNETKFWYQMILPPHFDKSKKYPLLLDVYAGPCSQKADTVFRLNWATYLASTENIIVASFDGRGSGYQGDKIMHAINRRLGTFEVEDQIEAARQFSKMGFVDNKRIAIWGWSYGGYVTSMVLGSGSGVFKCGIAVAPVSRWEYYDSVYTERYMGLPTPEDNLDHYRNSTVMSRAENFKQVEYLLIHGTADDNVHFQQSAQISKALVDVGVDFQAMWYTDEDHGIASSTAHQHIYTHMSHFIKQCFSLP
For B1, the Km turned out to be 0.8 µM.
